We go through one molecule from patent US20130330342A1 (CENTRE NATIONAL DE LA RECHERCHE SCIENTIFIQUE CNRS, published 2013).

In this assay the target is T1, CD8-Stop (UniProt P01732 22-203, limits assumed).
T1 construct: domain: CD8 receptor devoid of cytoplasmic domain; Control expressed in HeLa or 293T cells; also called CD8 protein devoid of cytoplasmic domain; control CD8-Stop protein
The experiment in a line: co-immunoprecipitation from 293T cells (anti-CD8 IP, anti-c-myc blot). The procedure:
The direct recognition of Nef by sdAb Nef19 was explored at the cell level by means of coimmuno-precipitation experiments. […] These constructs have been previously described (Janvier et al., 2003a,b; Madrid et al., 2005). The same type of experiment was also carried out on cells coexpressing the sdAb and the CD8 protein devoid of cytoplasmic domain (CD8-Stop) used as a control. 24 h after transfection, the cells were lyzed in a buffer containing 100 mM of (NH₄)₂SO₄, 20 mM of Tris (pH 7.5), 10% of glycerol, 1% of IGEPAL and a cocktail of protease inhibitors (Roche). The cell lyzate (600 μg of total proteins) was incubated for 1 h at 4° C. with 3 μg of the anti-CD8 Ab (32M4, Santa Cruz) and 30 μl of beads coated with protein A-sepharose. The immunoprecipitates were then analyzed by immunoblotting using an anti-CD8 Ab (H160, Santa Cruz) and an anti-c-myc Ab (9E10).

T1 sequence (P01732 22-203 limits assumed): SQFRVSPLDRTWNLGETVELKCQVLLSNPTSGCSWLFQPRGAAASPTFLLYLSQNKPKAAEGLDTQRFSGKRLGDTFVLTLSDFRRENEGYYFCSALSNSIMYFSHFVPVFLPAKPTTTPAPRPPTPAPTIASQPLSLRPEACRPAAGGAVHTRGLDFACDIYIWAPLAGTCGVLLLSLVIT

B1: sdAb Nef19 (VHH)
VHH: EVQLVESGGGLVQPGGSLKLSCAASGSIFRANAMRWYRQAPGKQREWVASVISDDFTDYVDSVRGRFTISKDNAQNTVYLQMNSLKPEDTAVYYCNAQLGGVNYWGQGTQVTVSS
notes: Llama VHH from the immune library; The soluble form carries C-terminal c-myc and 6His tags and is detected with mAb 9E10; also called sdAb Nef19P; sdAb Nef19C
In the case of B1, the binding result is listed as “no binding”.
